# According to publication PMC7869511, “Computer-aided design of PVR mutants with enhanced binding affinity to TIGIT” (Cell Communication and Signaling : CCS, 2021):
# B1: Fc-fused protein of human TIGIT [human] / wild type human PVR, full length, on CHO-K1 cells [human] (parent complex)
# chain 1: MMTGTIETTGNISAEKGGSIILQCHLSSTTAQVTQVNWEQQDQLLAICNADLGWHISPSFKDRVAPGPGLGLTLQSLTVNDTGEYFCIYHTYPDGTYTGRIFLEVLESSVAEHGARFQIP
# chain 2: WPPPGTGDVVVQAPTQVPGFLGDSVTLPCYLQVPNMEVTHVSQLTWARHGESGSMAVFHQTQGPSYSESKRLEFVAARLGAELRNASLRMFGLRVEDEGNYTCLFVTFPQGSRSVDIWLRVLAKPQNTAEVQKVQLTGEPVPMARCVSTGGRPPAQITWHSDLGGMPNTSQVPGFLSGTVTVTSLWILVPSSQVDGKNVTCKVEHESFEKPQLLTVNLTVYYPPEVSISGYDNNWYLGQNEATLTCDARSNPEPTGYNWSTTMGPLPPFAVAQGAQLLIRPVDKPINTTLICNVTNALGARQAELTVQVKEGPPSEHSGISRNAIIFLVLGILVFLILLGIGIYFYWSKCSREVLWHCHLCPSSTEHASASANGHVSYSAVSRENSSSQDPQTEGTR
# Variants of: B1
# Assay: flow cytometry on cells; 120 nM hTIGIT-Fc; CHOK1 cells overexpressing hPVR; parent: 1; read off a plot
row,Variant,ratio to parent
1,chain 2 WPPPGTGDVVVQAPTQVPGFLGDSVTLPCYLQVPNMEVTHVSQLTWARHGESGSMAVFHQTQGPSYSESKRLEFVAARLGAELRNASLRMFGLRVEDEGNYTCLFVTFPQMSRSVDIWLRVLAKPQNTAEVQKVQLTGEPVPMARCVSTGGRPPAQITWHSDLGGMPNTSQVPGFLSGTVTVTSLWILVPSSQVDGKNVTCKVEHESFEKPQLLTVNLTVYYPPEVSISGYDNNWYLGQNEATLTCDARSNPEPTGYNWSTTMGPLPPFAVAQGAQLLIRPVDKPINTTLICNVTNALGARQAELTVQVKEGPPSEHSGISRNAIIFLVLGILVFLILLGIGIYFYWSKCSREVLWHCHLCPSSTEHASASANGHVSYSAVSRENSSSQDPQTEGTR [chain 2 G111M],~0.93
2,chain 2 WPPPGTGDVVVQAPTQVPGFLGDSVTLPCYLQVPNMEVTHVSQLTWARHGESGSMAVFHQTQGPSYSESKRLEFVAARLGAELRNASLRMFGLRVEDEGNYTCLFVTFPQWSRSVDIWLRVLAKPQNTAEVQKVQLTGEPVPMARCVSTGGRPPAQITWHSDLGGMPNTSQVPGFLSGTVTVTSLWILVPSSQVDGKNVTCKVEHESFEKPQLLTVNLTVYYPPEVSISGYDNNWYLGQNEATLTCDARSNPEPTGYNWSTTMGPLPPFAVAQGAQLLIRPVDKPINTTLICNVTNALGARQAELTVQVKEGPPSEHSGISRNAIIFLVLGILVFLILLGIGIYFYWSKCSREVLWHCHLCPSSTEHASASANGHVSYSAVSRENSSSQDPQTEGTR [chain 2 G111W],~0.55
3,chain 2 WPPPGTGDVVVQAPTQVPGFLGDSVTLPCYLQVPNMEVTHVSQLTWARHGEWGSMAVFHQTQGPSYSESKRLEFVAARLGAELRNASLRMFGLRVEDEGNYTCLFVTFPQGSRSVDIWLRVLAKPQNTAEVQKVQLTGEPVPMARCVSTGGRPPAQITWHSDLGGMPNTSQVPGFLSGTVTVTSLWILVPSSQVDGKNVTCKVEHESFEKPQLLTVNLTVYYPPEVSISGYDNNWYLGQNEATLTCDARSNPEPTGYNWSTTMGPLPPFAVAQGAQLLIRPVDKPINTTLICNVTNALGARQAELTVQVKEGPPSEHSGISRNAIIFLVLGILVFLILLGIGIYFYWSKCSREVLWHCHLCPSSTEHASASANGHVSYSAVSRENSSSQDPQTEGTR [chain 2 S52W],~1.2
4,chain 2 WPPPGTGDVVVQAPTQVPGFLGDSVTLPCYLQVPNMEVTHVSQLTWARHGERGSMAVFHQTQGPSYSESKRLEFVAARLGAELRNASLRMFGLRVEDEGNYTCLFVTFPQGSRSVDIWLRVLAKPQNTAEVQKVQLTGEPVPMARCVSTGGRPPAQITWHSDLGGMPNTSQVPGFLSGTVTVTSLWILVPSSQVDGKNVTCKVEHESFEKPQLLTVNLTVYYPPEVSISGYDNNWYLGQNEATLTCDARSNPEPTGYNWSTTMGPLPPFAVAQGAQLLIRPVDKPINTTLICNVTNALGARQAELTVQVKEGPPSEHSGISRNAIIFLVLGILVFLILLGIGIYFYWSKCSREVLWHCHLCPSSTEHASASANGHVSYSAVSRENSSSQDPQTEGTR [chain 2 S52R],~1.1
5,chain 2 WPPPGTGDVVVQAPTQVPGFLGDSVTLPCYLQVPNMEVTHVSQLTWARHGESGSMAVFHQTQGPSYSESKRLEFVAARLGAELRNASLRMFGLRVEDEGNYTCLFVTFPQGRRSVDIWLRVLAKPQNTAEVQKVQLTGEPVPMARCVSTGGRPPAQITWHSDLGGMPNTSQVPGFLSGTVTVTSLWILVPSSQVDGKNVTCKVEHESFEKPQLLTVNLTVYYPPEVSISGYDNNWYLGQNEATLTCDARSNPEPTGYNWSTTMGPLPPFAVAQGAQLLIRPVDKPINTTLICNVTNALGARQAELTVQVKEGPPSEHSGISRNAIIFLVLGILVFLILLGIGIYFYWSKCSREVLWHCHLCPSSTEHASASANGHVSYSAVSRENSSSQDPQTEGTR [chain 2 S112R],~1
6,chain 2 WPPPGTGDVVVQAPTQVPGFLGDSVTLPCYLQVPNMEVTHVSQLTWARHGESGSMAVFHQTQGPSYSESKRLEFVAARLGAELRNASLRMFGLRVEDEGNYTCLFVTFPQGQRSVDIWLRVLAKPQNTAEVQKVQLTGEPVPMARCVSTGGRPPAQITWHSDLGGMPNTSQVPGFLSGTVTVTSLWILVPSSQVDGKNVTCKVEHESFEKPQLLTVNLTVYYPPEVSISGYDNNWYLGQNEATLTCDARSNPEPTGYNWSTTMGPLPPFAVAQGAQLLIRPVDKPINTTLICNVTNALGARQAELTVQVKEGPPSEHSGISRNAIIFLVLGILVFLILLGIGIYFYWSKCSREVLWHCHLCPSSTEHASASANGHVSYSAVSRENSSSQDPQTEGTR [chain 2 S112Q],~1.4

# Variants of: B1
# Assay: flow cytometry on cells; 120 nM hTIGIT-Fc; CHOK1 cells overexpressing hPVR; parent: 3.2e+03; read off a plot
row,Variant,response
1,chain 2 WPPPGTGDVVVQAPTQVPGFLGDSVTLPCYLQVPNMEVTHVSQLTWARHGESGSMAVFHQTQGPSYSESKRLEFVAARLGAELRNASLRMFGLRVEDEGNYTCLFVTFPQWSRSVDIWLRVLAKPQNTAEVQKVQLTGEPVPMARCVSTGGRPPAQITWHSDLGGMPNTSQVPGFLSGTVTVTSLWILVPSSQVDGKNVTCKVEHESFEKPQLLTVNLTVYYPPEVSISGYDNNWYLGQNEATLTCDARSNPEPTGYNWSTTMGPLPPFAVAQGAQLLIRPVDKPINTTLICNVTNALGARQAELTVQVKEGPPSEHSGISRNAIIFLVLGILVFLILLGIGIYFYWSKCSREVLWHCHLCPSSTEHASASANGHVSYSAVSRENSSSQDPQTEGTR [chain 2 G111W],~1700 MFI

# Variants of: B1
# Assay: as above
# Remark: another data set of the same source
row,Variant,response
1,chain 2 WPPPGTGDVVVQAPTQVPGFLGDSVTLPCYLQVPNMEVTHVSQLTWARHGESGSMAVFHQTQGPSYSESKRLEFVAARLGAELRNASLRMFGLRVEDEGNYTCLFVTFPQGQRSVDIWLRVLAKPQNTAEVQKVQLTGEPVPMARCVSTGGRPPAQITWHSDLGGMPNTSQVPGFLSGTVTVTSLWILVPSSQVDGKNVTCKVEHESFEKPQLLTVNLTVYYPPEVSISGYDNNWYLGQNEATLTCDARSNPEPTGYNWSTTMGPLPPFAVAQGAQLLIRPVDKPINTTLICNVTNALGARQAELTVQVKEGPPSEHSGISRNAIIFLVLGILVFLILLGIGIYFYWSKCSREVLWHCHLCPSSTEHASASANGHVSYSAVSRENSSSQDPQTEGTR [chain 2 S112Q],~4400 MFI
